Data as given in PMC10656745 (ACS synthetic biology, 2022).

Target: the molecule itself
Test: native gel or EMSA

B1: wild-type GstA (glutathione S-transferase, PP_1162) of Pseudomonas putida KT2440 (enzyme, UniProt Q88NP5 1-209, looked up)
chain: MSNPIKLYNFPKSGHAHRIELMLSLLNLPTELVFVDLAKGAHKQPDFLALNPFGQVPVIDDNGTVIADSNAILVYLAKKYDNGTWLPEEPAAAARVQRWLSVAAGPLAFGPAAARLVTVFGASFNTDEVISRAHTLLKVIDAELANTPFLTGSTPTIADIANYSYIAHAPEGNVSLEPYANVRNWLARIEALPRFVPMPRTVIGLQTHA
- stoichiometry N: 2
